In general, Kd refers to the free concentration of one partner at which half of the binding sites on the other are occupied at equilibrium, for simple one-to-one binding. Read a high Kd as weaker binding.

The results in this text go back to publication PMC12774414.

For the assay, the target named is LssaCA-His (L. striatellus salivary carbonic anhydrase lacking the signal peptide, C-terminal His tag) (Laodelphax striatellus). As to the kind of experiment: MST; 10 µM LssaCA^sp- (His-fusion) labelled with NT-647 (RED-NHS), added to serially diluted GST-NP or MBP-OsTLP^sp-; initial concentration 40 µM, 0.1% (v/v) Tween 20; Monolith NT.115; KD Fit.

Take “GST-NP (rice stripe virus nucleocapsid protein, GST fusion) (natural protein)”: the Kd turned out to be 2.7 µM.

In turn, “MBP-OsTLP (Oryza sativa thaumatin-like protein without its signal peptide, N-terminal MBP fusion) (enzyme)” yielded a Kd of 1.3 µM.
